Experimental data: patent US20200262877A1, “ION CHANNEL-BINDING PEPTIDES AND METHODS OF USE THEREOF” (priority 2017, published 2020)

Assays:
Kv1.1 = biological target: T1, Kv1.1 (Homo sapiens, UniProt Q09470); assay: cell-based; type: cell-based; conditions: 100% = no change, <100% = inhibition
T1 construct: host or cells: HEK293 or CHO
Procedure, shortened: (§1)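 Transfected HEK293 or CHO cells were exposed for at least 5 min to peptides at 200 nM and 20 μM final, tested in duplicate, in HEPES-buffered physiological saline. Activation was taken as peptide-plus-agonist current over control current ×100, and inhibition as 1 minus that ratio ×100. Each channel's control was its own reference compound.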

Kv1.3 = biological target: T2, Kv1.3 (Homo sapiens, UniProt P22001); assay: cell-based; type: cell-based; conditions: 100% = no change, <100% = inhibition
T2 construct: host or cells: HEK293 or CHO
Procedure, shortened: as §1

Kv1.2 = biological target: T3, Kv1.2 (Homo sapiens, UniProt P16389); assay: cell-based; type: cell-based; conditions: 100% = no change, <100% = inhibition
T3 construct: host or cells: HEK293 or CHO
T3 sequence (P16389 whole entry): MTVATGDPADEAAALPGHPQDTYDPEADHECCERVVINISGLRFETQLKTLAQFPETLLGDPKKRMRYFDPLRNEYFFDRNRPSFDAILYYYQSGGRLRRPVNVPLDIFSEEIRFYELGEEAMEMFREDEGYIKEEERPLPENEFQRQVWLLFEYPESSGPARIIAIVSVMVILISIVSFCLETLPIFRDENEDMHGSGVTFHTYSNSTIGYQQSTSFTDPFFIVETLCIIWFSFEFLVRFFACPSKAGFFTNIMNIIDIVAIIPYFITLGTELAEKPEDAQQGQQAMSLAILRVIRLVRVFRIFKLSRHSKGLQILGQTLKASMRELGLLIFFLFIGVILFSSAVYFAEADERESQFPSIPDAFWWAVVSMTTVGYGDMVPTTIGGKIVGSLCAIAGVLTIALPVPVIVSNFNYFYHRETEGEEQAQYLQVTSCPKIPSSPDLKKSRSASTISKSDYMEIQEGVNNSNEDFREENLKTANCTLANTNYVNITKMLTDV
Procedure, shortened: as §1

TRPA1 = biological target: T4, TRPA1 (Homo sapiens, UniProt O75762); assay: Ion channel panel (IonWorks Barracuda): TRPA1; type: cell-based; conditions: 100% = no change, <100% = inhibition
T4 construct: host or cells: HEK293 or CHO
Procedure, shortened: as §1

α4β2 = biological target: T5, α4β2 (Homo sapiens, UniProt P17787+P43681); assay: Ion channel panel (IonWorks Barracuda): α4β2; type: cell-based; conditions: 100% = no change, <100% = inhibition
T5 construct: host or cells: HEK293 or CHO
Procedure, shortened: as §1

hERG = hERG (Homo sapiens, UniProt Q12809); assay: in vitro; conditions: 100% = no change, <100% = inhibition
Procedure, shortened: as §1

Nav1.5 = Nav1.5 (Homo sapiens, UniProt Q14524); assay: in vitro; conditions: 100% = no change; for Activity of Nav1.5 with peptide, expressed as a percentage of the reference compound: peptide at 0.2 μM; for Activity of Nav1.5 with peptide (percentage of the reference compound): peptide at 20 μM
Nav1.5, sequence (Q14524 whole entry): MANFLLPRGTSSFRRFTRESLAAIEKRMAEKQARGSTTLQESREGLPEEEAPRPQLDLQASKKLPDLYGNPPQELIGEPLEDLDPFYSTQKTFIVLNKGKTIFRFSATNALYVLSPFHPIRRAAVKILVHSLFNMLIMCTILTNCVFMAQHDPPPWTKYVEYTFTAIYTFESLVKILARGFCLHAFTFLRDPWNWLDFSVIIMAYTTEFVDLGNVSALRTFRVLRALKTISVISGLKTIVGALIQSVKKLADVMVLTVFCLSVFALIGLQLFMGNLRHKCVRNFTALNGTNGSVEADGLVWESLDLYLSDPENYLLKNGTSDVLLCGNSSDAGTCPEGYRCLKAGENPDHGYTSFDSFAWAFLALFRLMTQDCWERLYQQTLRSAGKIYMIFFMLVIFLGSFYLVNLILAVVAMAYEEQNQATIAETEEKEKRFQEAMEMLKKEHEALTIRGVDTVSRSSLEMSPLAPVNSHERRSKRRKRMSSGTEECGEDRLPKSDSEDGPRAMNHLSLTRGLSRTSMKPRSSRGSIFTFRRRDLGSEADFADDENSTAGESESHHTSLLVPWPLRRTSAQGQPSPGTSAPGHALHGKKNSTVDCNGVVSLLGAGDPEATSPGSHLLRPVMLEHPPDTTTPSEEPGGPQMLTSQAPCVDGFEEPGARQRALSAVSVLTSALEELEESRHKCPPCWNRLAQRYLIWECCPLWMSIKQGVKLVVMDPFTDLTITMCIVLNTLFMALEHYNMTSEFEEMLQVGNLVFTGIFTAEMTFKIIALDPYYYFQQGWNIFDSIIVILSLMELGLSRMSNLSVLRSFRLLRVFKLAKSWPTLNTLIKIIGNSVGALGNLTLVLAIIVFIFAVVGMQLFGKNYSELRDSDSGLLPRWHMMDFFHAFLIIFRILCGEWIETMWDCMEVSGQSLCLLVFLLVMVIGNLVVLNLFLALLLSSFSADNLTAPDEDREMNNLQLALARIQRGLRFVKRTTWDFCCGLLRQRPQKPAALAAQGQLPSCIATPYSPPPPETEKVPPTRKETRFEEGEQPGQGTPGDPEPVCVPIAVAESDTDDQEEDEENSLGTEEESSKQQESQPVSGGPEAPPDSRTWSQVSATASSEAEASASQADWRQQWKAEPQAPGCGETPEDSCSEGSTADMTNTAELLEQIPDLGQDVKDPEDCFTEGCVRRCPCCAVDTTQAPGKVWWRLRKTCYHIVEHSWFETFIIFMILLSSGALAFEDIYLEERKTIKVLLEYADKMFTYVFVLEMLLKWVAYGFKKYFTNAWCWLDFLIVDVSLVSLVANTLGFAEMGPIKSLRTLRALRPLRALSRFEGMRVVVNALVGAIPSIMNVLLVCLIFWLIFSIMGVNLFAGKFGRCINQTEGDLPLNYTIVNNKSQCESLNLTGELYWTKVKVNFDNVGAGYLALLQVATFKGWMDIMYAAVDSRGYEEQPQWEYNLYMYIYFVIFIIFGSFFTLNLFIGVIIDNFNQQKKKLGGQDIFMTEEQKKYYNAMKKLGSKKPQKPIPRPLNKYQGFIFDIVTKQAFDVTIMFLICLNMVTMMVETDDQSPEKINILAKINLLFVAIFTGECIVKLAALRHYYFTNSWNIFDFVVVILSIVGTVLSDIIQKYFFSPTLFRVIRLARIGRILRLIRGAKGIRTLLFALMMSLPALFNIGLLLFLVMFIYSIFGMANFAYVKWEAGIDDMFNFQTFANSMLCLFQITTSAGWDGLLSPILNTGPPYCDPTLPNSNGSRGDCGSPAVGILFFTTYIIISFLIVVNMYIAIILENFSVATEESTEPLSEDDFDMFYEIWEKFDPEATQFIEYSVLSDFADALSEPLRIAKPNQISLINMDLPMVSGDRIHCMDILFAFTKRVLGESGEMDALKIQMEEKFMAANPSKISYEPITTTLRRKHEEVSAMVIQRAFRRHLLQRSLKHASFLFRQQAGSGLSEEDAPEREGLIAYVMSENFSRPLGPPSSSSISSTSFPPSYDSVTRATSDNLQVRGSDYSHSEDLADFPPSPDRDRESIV
Procedure, shortened: as §1

Kv2.1 = biological target: T6, Kv2.1 (Homo sapiens, UniProt Q14721); assay: cell-based; conditions: 100% = no change, <100% = inhibition
T6 construct: host or cells: HEK293 or CHO
Procedure, shortened: as §1

Cav2.1 = biological target: T7, Cav2.1 (Homo sapiens, UniProt O00555); assay: cell-based; conditions: 100% = no change, <100% = inhibition
T7 construct: host or cells: HEK293 or CHO
Procedure, shortened: as §1

Cav2.2 = biological target: T8, Cav2.2 (Homo sapiens, UniProt Q00975); assay: cell-based; conditions: 100% = no change, <100% = inhibition
T8 construct: host or cells: HEK293 or CHO
Procedure, shortened: as §1

TRPV1 = biological target: T9, TRPV1 (Homo sapiens, UniProt Q8NER1); assay: Ion channel panel (IonWorks Barracuda): TRPV1; type: cell-based; conditions: 100% = no change, <100% = inhibition
T9 construct: host or cells: HEK293 or CHO
Procedure, shortened: as §1

5HT3a = biological target: T10, 5HT3a (Homo sapiens, UniProt P46098); assay: Ion channel panel (IonWorks Barracuda): 5HT3a; type: cell-based
T10 construct: host or cells: HEK293 or CHO
T10 sequence (P46098 whole entry, looked up): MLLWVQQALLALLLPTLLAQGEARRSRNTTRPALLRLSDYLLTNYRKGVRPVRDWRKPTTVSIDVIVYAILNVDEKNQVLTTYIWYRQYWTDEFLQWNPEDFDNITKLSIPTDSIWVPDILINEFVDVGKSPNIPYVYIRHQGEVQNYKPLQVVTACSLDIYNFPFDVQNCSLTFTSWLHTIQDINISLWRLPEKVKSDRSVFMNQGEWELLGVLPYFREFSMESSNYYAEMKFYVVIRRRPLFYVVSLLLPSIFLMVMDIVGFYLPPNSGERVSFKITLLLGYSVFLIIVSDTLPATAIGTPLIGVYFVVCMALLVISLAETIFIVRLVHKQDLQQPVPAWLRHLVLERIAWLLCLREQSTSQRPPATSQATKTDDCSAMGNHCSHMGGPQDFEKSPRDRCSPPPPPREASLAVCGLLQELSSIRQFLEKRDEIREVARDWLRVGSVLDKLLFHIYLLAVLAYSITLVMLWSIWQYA
Procedure, shortened: as §1

Nav1.7 = biological target: T11, Nav1.7 (Homo sapiens, UniProt Q15858); assay: cell-based; type: cell-based; conditions: 100% = no change; for Activity of Nav1.7 with peptide, expressed as a percentage of the reference compound: peptide at 0.2 μM; for Activity of Nav1.7 with peptide (percentage of the reference compound): peptide at 20 μM
T11 construct: host or cells: HEK293 or CHO
T11 sequence (Q15858 whole entry): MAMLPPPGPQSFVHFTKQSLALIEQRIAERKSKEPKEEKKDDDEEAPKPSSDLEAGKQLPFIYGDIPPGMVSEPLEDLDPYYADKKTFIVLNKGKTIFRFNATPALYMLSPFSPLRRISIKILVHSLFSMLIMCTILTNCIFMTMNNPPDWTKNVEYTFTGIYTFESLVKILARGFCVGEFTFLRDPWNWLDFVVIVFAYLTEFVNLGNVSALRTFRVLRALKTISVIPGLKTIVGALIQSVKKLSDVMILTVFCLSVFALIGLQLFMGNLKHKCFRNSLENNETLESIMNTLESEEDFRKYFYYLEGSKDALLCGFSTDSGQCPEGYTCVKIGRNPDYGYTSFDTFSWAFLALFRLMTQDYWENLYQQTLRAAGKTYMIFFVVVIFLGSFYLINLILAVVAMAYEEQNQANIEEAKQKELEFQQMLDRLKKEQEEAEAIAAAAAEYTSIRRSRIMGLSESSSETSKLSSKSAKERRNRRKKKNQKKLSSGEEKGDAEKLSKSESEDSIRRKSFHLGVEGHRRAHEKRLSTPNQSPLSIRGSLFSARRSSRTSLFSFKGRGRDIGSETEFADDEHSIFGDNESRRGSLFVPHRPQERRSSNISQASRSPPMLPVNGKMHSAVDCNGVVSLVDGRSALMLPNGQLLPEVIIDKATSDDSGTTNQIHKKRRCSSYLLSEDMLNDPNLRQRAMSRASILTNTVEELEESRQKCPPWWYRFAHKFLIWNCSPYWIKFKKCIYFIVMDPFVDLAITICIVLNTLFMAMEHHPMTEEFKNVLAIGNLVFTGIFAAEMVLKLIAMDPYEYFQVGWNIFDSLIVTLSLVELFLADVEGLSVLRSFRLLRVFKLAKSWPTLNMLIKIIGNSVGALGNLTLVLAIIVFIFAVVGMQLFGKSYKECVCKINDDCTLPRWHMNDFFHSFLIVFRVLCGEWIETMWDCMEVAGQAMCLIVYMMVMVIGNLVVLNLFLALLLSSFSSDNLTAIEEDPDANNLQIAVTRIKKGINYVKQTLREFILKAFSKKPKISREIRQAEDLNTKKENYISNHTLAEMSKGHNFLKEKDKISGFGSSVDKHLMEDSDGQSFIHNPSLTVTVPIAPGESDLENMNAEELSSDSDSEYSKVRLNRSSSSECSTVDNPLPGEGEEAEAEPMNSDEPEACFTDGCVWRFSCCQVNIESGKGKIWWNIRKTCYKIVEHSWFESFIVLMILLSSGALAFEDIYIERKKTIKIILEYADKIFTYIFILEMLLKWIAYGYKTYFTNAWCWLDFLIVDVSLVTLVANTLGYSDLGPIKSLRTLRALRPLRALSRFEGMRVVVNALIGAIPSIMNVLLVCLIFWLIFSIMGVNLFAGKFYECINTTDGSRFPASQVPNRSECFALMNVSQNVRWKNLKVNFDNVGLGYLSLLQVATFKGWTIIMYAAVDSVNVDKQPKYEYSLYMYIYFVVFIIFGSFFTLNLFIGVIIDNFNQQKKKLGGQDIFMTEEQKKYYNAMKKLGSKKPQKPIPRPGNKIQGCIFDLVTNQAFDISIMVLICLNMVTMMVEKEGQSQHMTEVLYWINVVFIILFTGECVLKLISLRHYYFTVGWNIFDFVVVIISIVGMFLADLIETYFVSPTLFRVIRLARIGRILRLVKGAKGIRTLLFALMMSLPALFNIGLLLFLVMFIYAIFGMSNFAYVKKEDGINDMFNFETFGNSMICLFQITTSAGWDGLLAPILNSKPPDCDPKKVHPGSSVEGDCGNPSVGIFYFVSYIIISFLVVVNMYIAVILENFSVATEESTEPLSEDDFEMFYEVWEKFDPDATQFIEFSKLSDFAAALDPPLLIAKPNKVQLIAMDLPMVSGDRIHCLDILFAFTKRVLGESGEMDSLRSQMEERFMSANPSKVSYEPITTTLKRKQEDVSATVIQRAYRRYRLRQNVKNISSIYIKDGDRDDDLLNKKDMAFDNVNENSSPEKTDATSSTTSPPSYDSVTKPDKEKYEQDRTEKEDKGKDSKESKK

Kir2.1 = biological target: T12, Kir2.1 (Homo sapiens, UniProt P63252); assay: Ion channel panel (IonWorks Barracuda): Kir2.1; type: cell-based; conditions: 100% = no change, <100% = inhibition
T12 construct: host or cells: HEK293 or CHO
T12 sequence (P63252 whole entry): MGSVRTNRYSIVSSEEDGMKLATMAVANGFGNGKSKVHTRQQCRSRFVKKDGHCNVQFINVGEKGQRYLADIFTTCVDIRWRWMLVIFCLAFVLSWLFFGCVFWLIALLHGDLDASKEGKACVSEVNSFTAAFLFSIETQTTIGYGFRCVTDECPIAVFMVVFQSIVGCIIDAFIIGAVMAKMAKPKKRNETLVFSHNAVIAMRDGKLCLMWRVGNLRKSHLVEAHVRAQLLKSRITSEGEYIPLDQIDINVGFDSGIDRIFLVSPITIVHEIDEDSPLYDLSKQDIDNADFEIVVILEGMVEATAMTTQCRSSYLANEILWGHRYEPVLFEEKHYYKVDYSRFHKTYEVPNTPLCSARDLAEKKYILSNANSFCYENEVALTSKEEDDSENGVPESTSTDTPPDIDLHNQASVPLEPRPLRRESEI
Procedure, shortened: as §1

α3β4 = biological target: T13, α3β4 (Homo sapiens, UniProt P30926+P32297); assay: Ion channel panel (IonWorks Barracuda): α3β4; type: cell-based; conditions: 100% = no change, <100% = inhibition
T13 construct: host or cells: HEK293 or CHO
Procedure, shortened: as §1

NR2A = biological target: T14, NR2A (Homo sapiens, UniProt Q12879); assay: Ion channel panel (IonWorks Barracuda): NR2A; type: cell-based; conditions: 100% = no change, <100% = inhibition
T14 construct: host or cells: HEK293 or CHO
Procedure, shortened: as §1

NR2B = biological target: T15, NR2B (Homo sapiens, UniProt Q13224); assay: Ion channel panel (IonWorks Barracuda): NR2B; type: cell-based; conditions: 100% = no change, <100% = inhibition
T15 construct: host or cells: HEK293 or CHO
Procedure, shortened: as §1

GABA = assay: Ion channel panel (IonWorks Barracuda): GABA; type: cell-based; conditions: 100% = no change, <100% = inhibition
Procedure, shortened: as §1

[1] = first of two Nav1.5 columns (probably TP1)
[2] = second of two Nav1.5 columns (probably TP2)
[3] = first of two Nav1.7 columns (probably TP1)
[4] = second of two Nav1.7 columns (probably TP2)

36 (GSAQEPVKGPVSTKPGSCPIILIRCAMLNPPNRCLKDTDCPGIKKCCEGSCGMACFVPQ) [compound 36]
Activity of Kv1.1 with peptide, expressed as a percentage of the reference compound (Kv1.1; peptide at 0.2 μM): 82% | Activity of Kv1.1 with peptide (percentage of the reference compound) (Kv1.1; peptide at 20 μM): 101% | Activity of Kv1.3 with peptide, expressed as a percentage of the reference compound (Kv1.3; peptide at 0.2 μM): 96% | Activity of Kv1.3 with peptide (percentage of the reference compound) (Kv1.3; peptide at 20 μM): 93% | Activity of Kv1.2 with peptide, expressed as a percentage of the reference compound (Kv1.2; peptide at 0.2 μM): 91% | Activity of Kv1.2 with peptide (percentage of the reference compound) (Kv1.2; peptide at 20 μM): 87% | Activity of TRPA1 with peptide, expressed as a percentage of the reference compound (TRPA1; peptide at 0.2 μM): 106% | Activity of TRPA1 with peptide (percentage of the reference compound) (TRPA1; peptide at 20 μM): 92% | Activity of a4b2 with peptide, expressed as a percentage of the reference compound (α4β2; peptide at 0.2 μM): 62% | Activity of a4b2 with peptide (percentage of the reference compound) (α4β2; peptide at 20 μM): 57% | Activity of hERG with peptide, expressed as a percentage of the reference compound (hERG; peptide at 0.2 μM): 84% | Activity of hERG with peptide (percentage of the reference compound) (hERG; peptide at 20 μM): 65% | Activity of Nav1.5 with peptide, expressed as a percentage of the reference compound (Nav1.5; [1]): 110% | Activity of Nav1.5 with peptide, expressed as a percentage of the reference compound (Nav1.5; [2]): 109% | Activity of Nav1.5 with peptide (percentage of the reference compound) (Nav1.5; [1]): 107% | Activity of Nav1.5 with peptide (percentage of the reference compound) (Nav1.5; [2]): 112% | Activity of Kv2.1 with peptide, expressed as a percentage of the reference compound (Kv2.1; peptide at 0.2 μM): 104% | Activity of Kv2.1 with peptide (percentage of the reference compound) (Kv2.1; peptide at 20 μM): 92% | Activity of Cav2.1 with peptide, expressed as a percentage of the reference compound (Cav2.1; peptide at 0.2 μM): 96% | Activity of Cav2.1 with peptide (percentage of the reference compound) (Cav2.1; peptide at 20 μM): 102% | Activity of Cav2.2 with peptide, expressed as a percentage of the reference compound (Cav2.2; peptide at 0.2 μM): 114% | Activity of Cav2.2 with peptide (percentage of the reference compound) (Cav2.2; peptide at 20 μM): 87% | Activity of TRPV1 with peptide, expressed as a percentage of the reference compound (TRPV1; peptide at 0.2 μM): 103% | Activity of TRPV1 with peptide (percentage of the reference compound) (TRPV1; peptide at 20 μM): 69% | Activity of 5HT3a with peptide (percentage of the reference compound) (5HT3a): 83% | Activity of 5HT3a with peptide, expressed as a percentage of the reference compound (5HT3a): 81% | Activity of Nav1.7 with peptide, expressed as a percentage of the reference compound (Nav1.7; [3]): 108% | Activity of Nav1.7 with peptide, expressed as a percentage of the reference compound (Nav1.7; [4]): 118% | Activity of Nav1.7 with peptide (percentage of the reference compound) (Nav1.7; [3]): 91% | Activity of Nav1.7 with peptide (percentage of the reference compound) (Nav1.7; [4]): 71% | Activity of Kir2.1 with peptide, expressed as a percentage of the reference compound (Kir2.1; peptide at 0.2 μM): 108% | Activity of Kir2.1 with peptide (percentage of the reference compound) (Kir2.1; peptide at 20 μM): 91% | Activity of a3b4 with peptide, expressed as a percentage of the reference compound (α3β4; peptide at 0.2 μM): 95% | Activity of a3b4 with peptide (percentage of the reference compound) (α3β4; peptide at 20 μM): 87% | Activity of NR2A with peptide, expressed as a percentage of the reference compound (NR2A; peptide at 0.2 μM): 115% | Activity of NR2A with peptide (percentage of the reference compound) (NR2A; peptide at 20 μM): 103% | Activity of NR2B with peptide, expressed as a percentage of the reference compound (NR2B; peptide at 0.2 μM): 109% | Activity of NR2B with peptide (percentage of the reference compound) (NR2B; peptide at 20 μM): 96% | Activity of GABA with peptide, expressed as a percentage of the reference compound (GABA; peptide at 0.2 μM): 118% | Activity of GABA with peptide (percentage of the reference compound) (GABA; peptide at 20 μM): 106%
